Results taken from publication PMC11779899 (Nature Communications, 2025).

Experiments:
[1] = target: T1, WT-IrtABΔSID heterodimer in LMNG (Mycolicibacterium thermoresistibile …, point mutant); experiment: cryo-EM structure
T1 chain 1: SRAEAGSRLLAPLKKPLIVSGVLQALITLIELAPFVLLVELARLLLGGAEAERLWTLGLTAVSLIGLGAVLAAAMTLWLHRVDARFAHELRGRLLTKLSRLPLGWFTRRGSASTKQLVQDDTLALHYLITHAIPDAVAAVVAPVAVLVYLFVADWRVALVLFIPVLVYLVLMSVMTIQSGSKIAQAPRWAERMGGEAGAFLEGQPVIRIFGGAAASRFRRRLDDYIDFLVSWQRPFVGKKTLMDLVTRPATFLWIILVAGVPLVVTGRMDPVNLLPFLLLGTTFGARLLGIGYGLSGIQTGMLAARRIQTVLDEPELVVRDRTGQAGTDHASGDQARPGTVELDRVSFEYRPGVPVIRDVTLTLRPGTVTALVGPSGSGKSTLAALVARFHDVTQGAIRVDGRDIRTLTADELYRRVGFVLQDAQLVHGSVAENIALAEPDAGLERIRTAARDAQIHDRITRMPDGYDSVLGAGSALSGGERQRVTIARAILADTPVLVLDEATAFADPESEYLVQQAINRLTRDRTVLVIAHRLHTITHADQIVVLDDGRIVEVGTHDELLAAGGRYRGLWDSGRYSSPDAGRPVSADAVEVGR
T1 chain 2: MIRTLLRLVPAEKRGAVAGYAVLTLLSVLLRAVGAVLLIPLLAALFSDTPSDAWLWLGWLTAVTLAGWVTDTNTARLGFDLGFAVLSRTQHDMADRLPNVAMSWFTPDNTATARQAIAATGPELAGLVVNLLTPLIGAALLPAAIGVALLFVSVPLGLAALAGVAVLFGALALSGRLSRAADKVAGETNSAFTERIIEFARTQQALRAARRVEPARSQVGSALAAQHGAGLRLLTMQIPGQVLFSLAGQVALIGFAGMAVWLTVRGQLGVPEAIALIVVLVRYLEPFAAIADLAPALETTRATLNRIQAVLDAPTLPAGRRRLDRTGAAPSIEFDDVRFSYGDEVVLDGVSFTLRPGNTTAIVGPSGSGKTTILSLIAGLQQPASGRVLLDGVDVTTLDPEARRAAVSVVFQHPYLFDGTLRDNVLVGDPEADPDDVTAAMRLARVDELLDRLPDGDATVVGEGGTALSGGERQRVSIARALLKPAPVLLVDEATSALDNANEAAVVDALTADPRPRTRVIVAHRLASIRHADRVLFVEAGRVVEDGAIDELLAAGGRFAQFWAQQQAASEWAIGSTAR

[2] = target: Full-length WT-IrtAB heterodimer reconstituted in nanodiscs (Mycolicibacterium thermoresistibile …, UniProt G7CBF5;G7CBF6); experiment: cryo-EM structure

B1: IrtAB-specific sybody SybNL5 (VHH)
VHH: QVQLVESGGGLVQAGGSLRLSCAASGFPVSSSTMTWYRQAPGKEREWVAAINSYGYYTVYADSVKGRFTISRDNAKNTVYLQMNSLKPEDTAVYYCNVKDTGQMRESYDYWGQGTQVTVSA
[1]
  binding result: binds
[2]
  binding result: binds
